Source: publication PMC2782368 (Journal of molecular biology, 2009)

T1: murine core RAG1 fused to maltose-binding protein, wild type (murine), P15919
T1 chain: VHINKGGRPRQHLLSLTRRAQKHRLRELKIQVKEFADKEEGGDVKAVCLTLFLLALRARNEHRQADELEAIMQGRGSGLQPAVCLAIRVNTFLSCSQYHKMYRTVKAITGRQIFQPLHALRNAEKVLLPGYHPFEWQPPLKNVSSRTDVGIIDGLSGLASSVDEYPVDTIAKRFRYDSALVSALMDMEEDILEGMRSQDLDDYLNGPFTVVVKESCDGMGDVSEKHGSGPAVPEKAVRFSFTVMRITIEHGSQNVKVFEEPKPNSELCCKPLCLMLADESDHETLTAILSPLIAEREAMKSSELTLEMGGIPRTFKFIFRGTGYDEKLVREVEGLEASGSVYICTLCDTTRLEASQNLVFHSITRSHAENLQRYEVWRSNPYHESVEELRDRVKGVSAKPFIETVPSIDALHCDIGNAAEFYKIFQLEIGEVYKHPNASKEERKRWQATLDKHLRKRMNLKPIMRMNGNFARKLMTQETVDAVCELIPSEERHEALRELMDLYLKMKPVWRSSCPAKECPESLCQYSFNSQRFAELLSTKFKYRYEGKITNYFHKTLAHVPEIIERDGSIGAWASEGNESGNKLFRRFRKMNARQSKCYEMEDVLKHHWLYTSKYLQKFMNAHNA

T2: murine core RAG1 fused to maltose-binding protein, wild type (murine, UniProt P15919 384-1008)
T2 sequence (looked up): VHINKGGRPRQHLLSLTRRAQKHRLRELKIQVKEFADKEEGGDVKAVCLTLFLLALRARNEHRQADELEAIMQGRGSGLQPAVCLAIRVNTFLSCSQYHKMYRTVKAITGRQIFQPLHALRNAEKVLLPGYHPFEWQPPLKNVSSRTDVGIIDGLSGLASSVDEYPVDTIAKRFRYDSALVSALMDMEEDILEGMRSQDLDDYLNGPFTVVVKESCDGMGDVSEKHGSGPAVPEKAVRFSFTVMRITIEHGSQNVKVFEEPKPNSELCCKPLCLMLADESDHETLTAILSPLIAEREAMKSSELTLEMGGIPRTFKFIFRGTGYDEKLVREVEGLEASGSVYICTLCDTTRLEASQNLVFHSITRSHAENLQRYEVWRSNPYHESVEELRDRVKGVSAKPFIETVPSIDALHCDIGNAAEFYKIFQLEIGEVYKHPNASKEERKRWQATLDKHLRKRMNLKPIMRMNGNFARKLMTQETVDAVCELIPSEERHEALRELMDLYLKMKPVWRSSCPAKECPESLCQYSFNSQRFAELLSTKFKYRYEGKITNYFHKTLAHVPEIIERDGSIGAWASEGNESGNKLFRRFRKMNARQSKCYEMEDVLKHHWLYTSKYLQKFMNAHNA

T3: mR1(core) E962A mutant (murine, UniProt P15919 384-1008, E962A)
T3 sequence (looked up): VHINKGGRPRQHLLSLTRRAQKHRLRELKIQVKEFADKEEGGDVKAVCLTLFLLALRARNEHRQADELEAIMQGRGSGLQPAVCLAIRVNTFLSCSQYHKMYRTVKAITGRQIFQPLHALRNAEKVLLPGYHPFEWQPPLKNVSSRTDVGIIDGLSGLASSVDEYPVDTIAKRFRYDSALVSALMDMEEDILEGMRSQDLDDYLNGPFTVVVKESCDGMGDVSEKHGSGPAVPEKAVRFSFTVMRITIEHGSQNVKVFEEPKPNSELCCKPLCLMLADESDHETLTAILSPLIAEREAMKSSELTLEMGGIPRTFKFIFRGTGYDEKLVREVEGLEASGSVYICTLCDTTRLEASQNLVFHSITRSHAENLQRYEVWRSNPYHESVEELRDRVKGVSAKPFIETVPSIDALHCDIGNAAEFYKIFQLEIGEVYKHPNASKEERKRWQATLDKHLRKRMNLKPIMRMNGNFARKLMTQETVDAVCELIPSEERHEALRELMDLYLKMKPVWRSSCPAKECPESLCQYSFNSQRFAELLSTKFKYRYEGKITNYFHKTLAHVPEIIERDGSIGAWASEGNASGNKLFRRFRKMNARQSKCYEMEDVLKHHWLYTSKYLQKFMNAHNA

T4: mR1(core) H942A mutant (murine, UniProt P15919 384-1008, H942A)
T4 sequence (looked up): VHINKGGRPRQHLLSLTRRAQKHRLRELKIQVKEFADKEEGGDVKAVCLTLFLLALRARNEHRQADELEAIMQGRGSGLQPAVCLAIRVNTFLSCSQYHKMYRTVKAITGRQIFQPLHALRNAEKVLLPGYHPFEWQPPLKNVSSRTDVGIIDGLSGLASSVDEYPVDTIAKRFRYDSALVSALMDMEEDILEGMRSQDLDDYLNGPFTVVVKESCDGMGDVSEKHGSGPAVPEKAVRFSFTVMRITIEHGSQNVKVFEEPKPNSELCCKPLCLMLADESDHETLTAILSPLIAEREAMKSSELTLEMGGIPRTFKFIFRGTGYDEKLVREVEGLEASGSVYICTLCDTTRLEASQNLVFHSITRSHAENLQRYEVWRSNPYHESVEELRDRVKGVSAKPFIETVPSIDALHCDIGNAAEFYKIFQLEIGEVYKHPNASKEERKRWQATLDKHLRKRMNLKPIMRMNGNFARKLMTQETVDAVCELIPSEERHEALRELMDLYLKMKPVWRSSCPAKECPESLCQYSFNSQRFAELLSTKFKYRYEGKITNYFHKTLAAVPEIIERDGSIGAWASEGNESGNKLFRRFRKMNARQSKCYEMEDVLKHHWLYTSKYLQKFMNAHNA

T5: mR1(core) H937A mutant (murine, UniProt P15919 384-1008, H937A)
T5 sequence (looked up): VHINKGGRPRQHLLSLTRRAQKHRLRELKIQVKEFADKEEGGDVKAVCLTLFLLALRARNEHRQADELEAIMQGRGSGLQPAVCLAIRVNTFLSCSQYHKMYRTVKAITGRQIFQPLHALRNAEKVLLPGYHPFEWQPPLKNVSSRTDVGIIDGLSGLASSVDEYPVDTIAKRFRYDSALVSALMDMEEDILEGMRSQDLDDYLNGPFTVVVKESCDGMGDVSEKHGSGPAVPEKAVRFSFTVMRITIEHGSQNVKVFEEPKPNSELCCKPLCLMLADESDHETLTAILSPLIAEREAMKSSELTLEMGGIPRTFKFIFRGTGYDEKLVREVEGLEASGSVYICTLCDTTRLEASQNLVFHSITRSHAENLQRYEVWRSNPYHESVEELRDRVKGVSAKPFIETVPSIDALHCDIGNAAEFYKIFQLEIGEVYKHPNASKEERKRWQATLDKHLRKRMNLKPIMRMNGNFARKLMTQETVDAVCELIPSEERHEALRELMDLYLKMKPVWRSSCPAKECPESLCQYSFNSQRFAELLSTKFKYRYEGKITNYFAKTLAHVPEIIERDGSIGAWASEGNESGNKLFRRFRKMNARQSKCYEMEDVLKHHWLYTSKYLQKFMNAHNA


Key:
[1] = target: T1, murine core RAG1 fused to …; test: SEC; details: remark: other sources report otherwise
[2] = target: T2, murine core RAG1 fused to …; test: pull-down
mR1(core) E962A mutant = target: T3, mR1(core) E962A mutant; test: pull-down
mR1(core) H942A mutant = target: T4, mR1(core) H942A mutant; test: pull-down
mR1(core) H937A mutant = target: T5, mR1(core) H937A mutant; test: pull-down

stoichiometry N [1]	binding result [2]	binding result (mR1(core) E962A mutant)	binding result (mR1(core) H942A mutant)	binding result (mR1(core) H937A mutant)	Binder
2	–	–	–	–	murine core RAG1 fused to maltose-binding protein, wild type, P15919 384-1008 (domain or fragment) VHINKGGRPRQHLLSLTRRAQKHRLRELKIQVKEFADKEEGGDVKAVCLTLFLLALRARNEHRQADELEAIMQGRGSGLQPAVCLAIRVNTFLSCSQYHKMYRTVKAITGRQIFQPLHALRNAEKVLLPGYHPFEWQPPLKNVSSRTDVGIIDGLSGLASSVDEYPVDTIAKRFRYDSALVSALMDMEEDILEGMRSQDLDDYLNGPFTVVVKESCDGMGDVSEKHGSGPAVPEKAVRFSFTVMRITIEHGSQNVKVFEEPKPNSELCCKPLCLMLADESDHETLTAILSPLIAEREAMKSSELTLEMGGIPRTFKFIFRGTGYDEKLVREVEGLEASGSVYICTLCDTTRLEASQNLVFHSITRSHAENLQRYEVWRSNPYHESVEELRDRVKGVSAKPFIETVPSIDALHCDIGNAAEFYKIFQLEIGEVYKHPNASKEERKRWQATLDKHLRKRMNLKPIMRMNGNFARKLMTQETVDAVCELIPSEERHEALRELMDLYLKMKPVWRSSCPAKECPESLCQYSFNSQRFAELLSTKFKYRYEGKITNYFHKTLAHVPEIIERDGSIGAWASEGNESGNKLFRRFRKMNARQSKCYEMEDVLKHHWLYTSKYLQKFMNAHNA
–	binds	binds	binds	binds	core RAG2 fused to glutathione S-transferase (domain or fragment, murine, UniProt P21784 1-387, looked up) MSLQMVTVGHNIALIQPGFSLMNFDGQVFFFGQKGWPKRSCPTGVFHFDIKQNHLKLKPAIFSKDSCYLPPLRYPATCSYKGSIDSDKHQYIIHGGKTPNNELSDKIYIMSVACKNNKKVTFRCTEKDLVGDVPEPRYGHSIDVVYSRGKSMGVLFGGRSYMPSTQRTTEKWNSVADCLPHVFLIDFEFGCATSYILPELQDGLSFHVSIARNDTVYILGGHSLASNIRPANLYRIRVDLPLGTPAVNCTVLPGGISVSSAILTQTNNDEFVIVGGYQLENQKRMVCSLVSLGDNTIEISEMETPDWTSDIKHSKIWFGSNMGNGTIFLGIPGDNKQAMSEAFYFYTLRCSEEDLSEDQKIVSNSQTSTEDPGDSTPFEDSEEFCFS
